molecular target: HLA-A*02:01 (Homo sapiens, UniProt P04439, D140Y/D185E/D98H/E176V/E277Q/G131W/G231S/I119V/I121R/I166T/I218V/L300P/L318F/N151K/N90K/P208A/P217A/Q86G/Q94H/R138H/R169H/T345S); assay: MHC binding assay (UV-ligand exchange, beta2m ELISA); settings: binding to HLA-A*02:01, β2m ELISA
Excerpt: Candidate peptides for T cell based therapies according to the present invention were further tested for their MHC binding capacity (affinity). The individual peptide-MHC complexes were produced by UV-ligand exchange, where a UV-sensitive peptide is cleaved upon UV-irradiation, and exchanged with the peptide of interest as analyzed. Only peptide candidates that can effectively bind and stabilize the peptide-receptive MHC molecules prevent dissociation of the MHC complexes. To determine the yield of the exchange reaction, an ELISA was performed based on the detection of the light chain (β2m) of stabilized MHC complexes. The assay was performed as generally described in Rodenko et al. (Rodenko et al., 2006).
96 well MAXISorp plates (NUNC) were coated over night with 2 ug/ml streptavidin in PBS at room temperature, washed 4× and blocked for 1 h at 37° C. in 2% BSA containing blocking buffer. Refolded HLA-A*02:01/MLA-001 monomers served as standards, covering the range of 15-500 ng/ml. Peptide-MHC monomers of the UV-exchange reaction were diluted 100 fold in blocking buffer. Samples were incubated for 1 h at 37° C., washed four times, incubated with 2 ug/ml HRP conjugated anti-82m for 1 h at 37° C., washed again and detected with TMB solution that is stopped with […]. Absorption was measured at 450 nm. Candidate peptides that show a high exchange yield (preferably higher than 50%, most preferred higher than 75%) are generally preferred for a generation and production of antibodies or fragments thereof, and/or T cell receptors or fragments thereof, as they show sufficient avidity to the MHC molecules and prevent dissociation of the MHC complexes.

Row | Substance | Peptide exchange (MHC class I binding score, peptide exchange yield)
1 | 188 (VLGEEQEGV; listed as Homo sapiens) [compound 188] | ++ (≥20% = ++)
2 | 142 (LLDAAHASI; listed as Homo sapiens) [compound 142] | ++ (≥20% = ++)
3 | 266 (FLLDKPQDL; listed as Homo sapiens) [compound 266] | ++ (≥20% = ++)
4 | 125 (AALEVLAEV; listed as Homo sapiens) [compound 125] | +++ (≥50 = +++)
5 | 171 (LLLLDVPTA; listed as Homo sapiens) [compound 171] | ++ (≥20% = ++)
6 | 281 (LLLESDPKVYSL; listed as Homo sapiens) [compound 281] | ++ (≥20% = ++)
7 | 93 (RLYGYFHDA; listed as Homo sapiens) [compound 93] | ++ (≥20% = ++)
8 | 21 (YLMDDFSSL; listed as Homo sapiens) [compound 21] | +++ (≥50 = +++)
9 | 75 (ALLDGALQL; listed as Homo sapiens) [compound 75] | +++ (≥50 = +++)
10 | 155 (TLDSYLKAV; listed as Homo sapiens) [compound 155] | ++ (≥20% = ++)
11 | 222 (LLTGVFAQL; listed as Homo sapiens) [compound 222] | ++ (≥20% = ++)
12 | 117 (TLLEGISRA; listed as Homo sapiens) [compound 117] | ++ (≥20% = ++)
13 | 91 (LLPSIFLMV; listed as Homo sapiens) [compound 91] | ++ (≥20% = ++)
14 | 191 (AAIEIFEKV; listed as Homo sapiens) [compound 191] | +++ (≥50 = +++)
15 | 134 (SLYKSFLQL; listed as Homo sapiens) [compound 134] | ++ (≥20% = ++)
16 | 72 (VLSTRVTNV; listed as Homo sapiens) [compound 72] | ++ (≥20% = ++)
17 | 95 (KLIDEDEPLFL; listed as Homo sapiens) [compound 95] | +++ (≥50 = +++)
18 | 227 (SEMEELPSV; listed as Homo sapiens) [compound 227] | + (≥10% = +)
19 | 69 (LKVLKADVVL; listed as Homo sapiens) [compound 69] | ++ (≥20% = ++)
20 | 65 (SLSEKSPEV; listed as Homo sapiens) [compound 65] | ++ (≥20% = ++)
21 | 230 (KLLNMIFSI; listed as Homo sapiens) [compound 230] | +++ (≥50 = +++)

Row | Substance | Peptide exchange (MHC class I binding score, peptide exchange yield)
22 | 57 (TLYPGRFDYV; listed as Homo sapiens) [compound 57] | ++ (≥20% = ++)
23 | 133 (FLDGRPLTL; listed as Homo sapiens) [compound 133] | ++ (≥20% = ++)
24 | 110 (QIQGQVSEV; listed as Homo sapiens) [compound 110] | ++ (≥20% = ++)
25 | 126 (QLREAFEQL; listed as Homo sapiens) [compound 126] | +++ (≥50 = +++)
26 | 273 (SLNKQIETV; listed as Homo sapiens) [compound 273] | ++ (≥20% = ++)
27 | 11 (LLDPKTIFL; listed as Homo sapiens) [compound 11] | +++ (≥50 = +++)
28 | 160 (TLQEWLTEV; listed as Homo sapiens) [compound 160] | +++ (≥50 = +++)
29 | 7 (ALLQALMEL; listed as Homo sapiens) [compound 7] | +++ (≥50 = +++)
30 | 116 (ALLSSVAEA; listed as Homo sapiens) [compound 116] | ++ (≥20% = ++)
31 | 194 (KLLEEVQLL; listed as Homo sapiens) [compound 194] | ++ (≥20% = ++)
32 | 237 (ALLEQTGDMSL; listed as Homo sapiens) [compound 237] | +++ (≥50 = +++)
33 | 231 (LLDDIFIRL; listed as Homo sapiens) [compound 231] | +++ (≥50 = +++)
34 | 68 (QLMNLIRSV; listed as Homo sapiens) [compound 68] | +++ (≥50 = +++)
35 | 60 (YLFSQGLQGL; listed as Homo sapiens) [compound 60] | +++ (≥50 = +++)
36 | 229 (YLYELEHAL; listed as Homo sapiens) [compound 229] | ++ (≥20% = ++)
37 | 109 (ILGSFELQL; listed as Homo sapiens) [compound 109] | +++ (≥50 = +++)
38 | 144 (FLISQTPLL; listed as Homo sapiens) [compound 144] | +++ (≥50 = +++)
39 | 180 (RLYEEEIRI; listed as Homo sapiens) [compound 180] | +++ (≥50 = +++)
40 | 146 (VVAAHLAGA; listed as Homo sapiens) [compound 146] | ++ (≥20% = ++)
41 | 253 (KLLAVIHEL; listed as Homo sapiens) [compound 253] | +++ (≥50 = +++)
42 | 22 (LMYPYIYHV; listed as Homo sapiens) [compound 22] | +++ (≥50 = +++)

Row | Substance | Peptide exchange (MHC class I binding score, peptide exchange yield)
43 | 247 (NLLIDDKGTIKL; listed as Homo sapiens) [compound 247] | ++ (≥20% = ++)
44 | 49 (KLIGNIHGNEV; listed as Homo sapiens) [compound 49] | ++ (≥20% = ++)
45 | 41 (IVTEIISEI; listed as Homo sapiens) [compound 41] | +++ (≥50 = +++)
46 | 213 (ILAVDGVLSV; listed as Homo sapiens) [compound 213] | +++ (≥50 = +++)
47 | 137 (KLIYKDLVSV; listed as Homo sapiens) [compound 137] | ++ (≥20% = ++)
48 | 24 (KVWSDVTPL; listed as Homo sapiens) [compound 24] | +++ (≥50 = +++)
49 | 226 (SLAGNLQEL; listed as Homo sapiens) [compound 226] | +++ (≥50 = +++)
50 | 280 (HLWGHALFL; listed as Homo sapiens) [compound 280] | +++ (≥50 = +++)
51 | 136 (LLWDAPAKC; listed as Homo sapiens) [compound 136] | +++ (≥50 = +++)
52 | 52 (TIGIPFPNV; listed as Homo sapiens) [compound 52] | ++ (≥20% = ++)
53 | 5 (GLVDIMVHL; listed as Homo sapiens) [compound 5] | +++ (≥50 = +++)
54 | 107 (RVLPGQAVTGV; listed as Homo sapiens) [compound 107] | ++ (≥20% = ++)
55 | 44 (AVFNLVHVV; listed as Homo sapiens) [compound 44] | +++ (≥50 = +++)
56 | 105 (AMLASQTEA; listed as Homo sapiens) [compound 105] | ++ (≥20% = ++)
57 | 94 (YLDEVAFML; listed as Homo sapiens) [compound 94] | +++ (≥50 = +++)
58 | 108 (FIANLPPELKA; listed as Homo sapiens) [compound 108] | +++ (≥50 = +++)
59 | 165 (SLLDYEVSI; listed as Homo sapiens) [compound 165] | +++ (≥50 = +++)
60 | 234 (VLLNEILEQV; listed as Homo sapiens) [compound 234] | ++++ (≥75% = ++++)
61 | 179 (TLGEIIKGV; listed as Homo sapiens) [compound 179] | +++ (≥50 = +++)
62 | 259 (GPGIFPPPPPQP; listed as Homo sapiens) [compound 259] | + (≥10% = +)

— US10081665B2, “Peptides and combination of peptides for use in immunotherapy against various tumors” (immatics biotechnologies GmbH, priority 2015, dated 2018)
